Laboratory results published in article PMC11150526, “Pseudomonas aeruginosa gene PA4880 encodes a Dps-like protein with a Dps fold, bacterioferritin-type ferroxidase centers, and endonuclease activity” (Frontiers in Molecular Biosciences, 2024).

Assays:
[1] = biological target: the molecule itself; test: SEC; calibrated Superdex 200 Increase 10/300 GL; 50 mM Tris pH 7.5, 1 mM MgSO4; also run after titration with Fe2+ (0 h and 24 h), and after MgSO4 was added back to disassembled protein (only partial reassembly)
[2] = biological target: the molecule itself; test: crystal structure; Pa DpsL-dimer (also called Pa DpsL-monomer); protein purified without MgSO4; crystals from 8% PEG 6,000, 100 mM MES pH 6.0, 100 mM MgCl2; 1.3 A; one molecule in the asymmetric unit, dimer by crystallographic symmetry (PISA)

B1: Pseudomonas aeruginosa Dps-like protein (product of gene PA4880) (natural protein, Pseudomonas aeruginosa PAO1, UniProt Q9HUT3 1-177, looked up)
chain: MTTVQLTDVQTLRDRARKNIQEGAVTEGYSADRQTVLRLLNEALATELVCFLRYKRHYFMATGLKASIAAAEFLEHANQEMQHADQLAERIMQLGGEPDFNPRGLEERSHAEYVEGKTLKDMVTENLIAERIAIDSYREIITYLGNDDPTTRRIFEEILAQEEEHADDMADILDDLA
notes: Product of gene PA4880 of P. aeruginosa PAO1 (annotated as probable bacterioferritin); The gene was synthesised with silent, codon-optimising mutations and cloned NdeI/BamHI into pET11a; The structures number residues from Met1; No tag is mentioned; As isolated it carries di-iron ferroxidase centres (8-10 Fe per 12-mer); also called Pa DpsL; PaDpsL; source: E. coli BL21-Gold (DE3), pET11a, …
stoichiometry N [1]: 12 | stoichiometry N [2]: 2
